Measured values as given in article PMC2843741.

Target: GST-CypA (UniProt P62937)
Assay: pull-down; 35S-labelled in vitro translated proteins incubated overnight in binding buffer with about 2.0 µg purified GST fusion or GST alone; glutathione Sepharose beads; 5 washes with PBS, 0.25% NP-40; SDS-10% PAGE, fluorography

Chain of UniProt P62937 (P62937 whole entry, the tested form may be a part): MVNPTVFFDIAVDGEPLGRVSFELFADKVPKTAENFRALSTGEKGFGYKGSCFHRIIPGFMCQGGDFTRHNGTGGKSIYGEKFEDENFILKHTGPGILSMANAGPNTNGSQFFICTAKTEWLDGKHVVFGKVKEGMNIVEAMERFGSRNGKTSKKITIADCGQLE

## HA-wt NS5A with in-frame deletion of amino acids 271-360 (domain or fragment)
  percent of input pulled down: 8 to 9 % of input

## HA-wt NS5A with in-frame deletion of amino acids 361-451 (domain or fragment)
  percent of input pulled down: 5 % of input
